We go through two molecules from patent US20220315554A1, “COMPOUNDS COMPRISING A […] LIGAND AND USE THEREOF” (priority 2019, published 2022).

Assay in all cases: radioligand displacement, 10 uM compound
Holding throughout (conditions): remark: other sources report otherwise
In general terms: Loss of bound radioactivity is the signal in a displacement assay; it reports binding, not function.

The target of assay [1] is T1, GR (h) (human (printed (h))), P04150.
T1 chain: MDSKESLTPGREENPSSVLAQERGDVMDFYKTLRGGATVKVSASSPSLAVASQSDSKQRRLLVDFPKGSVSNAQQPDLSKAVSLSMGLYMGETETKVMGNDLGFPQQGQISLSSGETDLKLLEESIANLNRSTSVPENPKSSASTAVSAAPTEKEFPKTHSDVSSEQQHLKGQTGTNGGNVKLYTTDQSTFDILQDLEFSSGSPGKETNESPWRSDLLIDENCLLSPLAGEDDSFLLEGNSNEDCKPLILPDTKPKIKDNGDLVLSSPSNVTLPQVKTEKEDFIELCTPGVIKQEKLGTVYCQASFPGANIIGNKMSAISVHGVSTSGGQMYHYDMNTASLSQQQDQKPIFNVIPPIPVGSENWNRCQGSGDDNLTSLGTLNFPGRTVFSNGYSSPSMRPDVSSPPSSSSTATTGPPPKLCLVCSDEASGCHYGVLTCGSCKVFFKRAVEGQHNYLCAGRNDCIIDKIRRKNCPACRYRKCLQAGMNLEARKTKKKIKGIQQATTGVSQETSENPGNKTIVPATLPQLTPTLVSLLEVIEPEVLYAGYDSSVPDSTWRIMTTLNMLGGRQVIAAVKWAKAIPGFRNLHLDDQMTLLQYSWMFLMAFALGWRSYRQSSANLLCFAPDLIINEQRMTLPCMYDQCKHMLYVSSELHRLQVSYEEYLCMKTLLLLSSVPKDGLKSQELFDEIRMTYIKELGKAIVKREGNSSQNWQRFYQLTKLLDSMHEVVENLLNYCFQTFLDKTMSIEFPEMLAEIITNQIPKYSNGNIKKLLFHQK

The target of assay [2] is T2, CB1 (h) (human (printed (h))), P21554.
T2 chain: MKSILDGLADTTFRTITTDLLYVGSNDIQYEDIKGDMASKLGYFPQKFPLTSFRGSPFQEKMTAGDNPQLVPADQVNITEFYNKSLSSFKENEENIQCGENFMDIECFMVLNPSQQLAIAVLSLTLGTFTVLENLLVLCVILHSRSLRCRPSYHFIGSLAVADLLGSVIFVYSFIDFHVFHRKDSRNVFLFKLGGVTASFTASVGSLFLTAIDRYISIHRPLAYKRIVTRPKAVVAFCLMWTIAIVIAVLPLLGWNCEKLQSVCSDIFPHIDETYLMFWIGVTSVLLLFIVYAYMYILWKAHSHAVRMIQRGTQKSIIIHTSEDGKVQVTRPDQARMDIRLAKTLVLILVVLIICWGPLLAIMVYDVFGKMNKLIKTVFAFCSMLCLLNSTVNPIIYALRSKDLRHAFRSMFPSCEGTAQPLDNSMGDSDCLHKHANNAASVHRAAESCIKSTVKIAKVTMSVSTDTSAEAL

The target of assay [3] is H2 (h) (human (printed (h))), P25021.
Assay [4] has as its target T3, ETA (h) (human (printed (h))), P25101.
T3 chain: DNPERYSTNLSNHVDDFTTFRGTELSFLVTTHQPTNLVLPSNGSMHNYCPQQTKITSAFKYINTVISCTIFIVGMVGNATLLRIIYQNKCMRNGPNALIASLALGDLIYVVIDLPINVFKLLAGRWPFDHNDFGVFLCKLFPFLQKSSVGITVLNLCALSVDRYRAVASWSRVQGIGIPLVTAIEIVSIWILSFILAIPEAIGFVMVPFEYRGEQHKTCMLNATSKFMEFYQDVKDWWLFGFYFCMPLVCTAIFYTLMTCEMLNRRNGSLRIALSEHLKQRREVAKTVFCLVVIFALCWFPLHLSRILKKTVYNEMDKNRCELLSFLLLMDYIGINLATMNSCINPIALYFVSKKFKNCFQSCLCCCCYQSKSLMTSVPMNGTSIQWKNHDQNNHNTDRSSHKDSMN

The target of assay [5] is M3 (h) (human (printed (h))), P20309.
Assay [6] concerns the target T4, 5-HT3 (h) (human (printed (h))), P46098.
T4 chain: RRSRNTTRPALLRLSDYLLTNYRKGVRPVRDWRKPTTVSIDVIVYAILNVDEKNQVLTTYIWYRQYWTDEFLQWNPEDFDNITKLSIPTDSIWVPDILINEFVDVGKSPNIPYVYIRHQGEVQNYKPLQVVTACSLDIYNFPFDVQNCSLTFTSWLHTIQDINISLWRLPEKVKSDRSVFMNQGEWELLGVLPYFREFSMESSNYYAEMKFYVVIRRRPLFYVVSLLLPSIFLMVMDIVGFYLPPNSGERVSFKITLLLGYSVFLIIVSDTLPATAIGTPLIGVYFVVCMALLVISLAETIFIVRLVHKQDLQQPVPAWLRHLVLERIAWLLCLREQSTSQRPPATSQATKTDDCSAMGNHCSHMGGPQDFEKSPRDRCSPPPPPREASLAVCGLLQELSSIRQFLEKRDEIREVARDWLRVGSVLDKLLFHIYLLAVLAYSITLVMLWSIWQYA

Substrate in assay [7]: N neuronal alpha 4beta 2 (h) (human (printed (h))), P43681
Assay [8] concerns the target T5, CCK1 (CCKA) (h) (human (printed (h))), P32238.
T5 chain: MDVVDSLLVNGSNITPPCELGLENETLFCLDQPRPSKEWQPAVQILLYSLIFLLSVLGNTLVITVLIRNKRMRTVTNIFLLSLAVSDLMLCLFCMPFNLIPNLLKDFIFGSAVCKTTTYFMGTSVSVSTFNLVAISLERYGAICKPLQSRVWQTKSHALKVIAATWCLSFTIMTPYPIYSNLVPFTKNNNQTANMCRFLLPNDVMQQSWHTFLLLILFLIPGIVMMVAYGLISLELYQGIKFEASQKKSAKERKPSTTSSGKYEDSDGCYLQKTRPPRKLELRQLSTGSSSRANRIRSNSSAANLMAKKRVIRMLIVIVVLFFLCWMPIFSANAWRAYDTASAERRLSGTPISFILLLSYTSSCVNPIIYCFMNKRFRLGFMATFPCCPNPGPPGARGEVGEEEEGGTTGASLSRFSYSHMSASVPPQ

Bridge positions count the residues as written; N and C are the ends. * marks the point of attachment. tMeBn(DOTA-AET) = Cys-Cys bridge (thioethers) carrying DOTA-AET; tMeBn(DOTA-PP) = Cys-Cys bridge (thioethers) carrying DOTA-PP; Hexanoyl = CCCCCC(=O)*

H2 (h) (human (printed (h))), P25021, sequence (P25021 whole entry): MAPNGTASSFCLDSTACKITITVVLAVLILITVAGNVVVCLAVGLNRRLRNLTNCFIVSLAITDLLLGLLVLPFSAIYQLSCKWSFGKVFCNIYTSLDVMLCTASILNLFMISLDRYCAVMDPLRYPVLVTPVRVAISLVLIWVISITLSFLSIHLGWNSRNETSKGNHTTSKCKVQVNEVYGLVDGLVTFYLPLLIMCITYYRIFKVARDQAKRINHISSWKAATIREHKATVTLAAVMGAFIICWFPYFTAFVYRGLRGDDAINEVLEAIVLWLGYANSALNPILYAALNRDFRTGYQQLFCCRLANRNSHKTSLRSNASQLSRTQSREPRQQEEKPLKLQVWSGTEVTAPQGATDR

B1: Hex-[Cys(tMeBn(DOTA-PP))-Pro-Pro-Thr-Gln-Phe-Cys]-Asp-NH2 (3BP-3407) (peptide)
peptide: Hexanoyl-CPPTQFCD-NH2
modifications: linker 1-7 via tMeBn(DOTA-PP)
On to B1, for which the % Inhibition of Specific Binding in assay [1] is -2%; in assay [2], 5%; in assay [3], -5%; in assay [4], -18%; in assay [5], 10%; in assay [6] it was 2%. In addition, the % Inhibition of Specific Binding in assay [7] is -8%; in assay [8], 24%.

B2: Hex-[Cys(tMeBn(DOTA-AET))-Pro-Pro-Thr-Gln-Phe-Cys]-OH (3BP-3554) (peptide)
peptide: Hexanoyl-CPPTQFC-OH
modifications: linker 1-7 via tMeBn(DOTA-AET)
B2: the % Inhibition of Specific Binding in assay [1] is 0%; in assay [2], -7%; in assay [3], -16%; in assay [4], 6%; in assay [5], 1%; in assay [6], 4%. Also, the figures for the % Inhibition of Specific Binding in assay [7] and in assay [8] were -2% and 16%, respectively.
